Test results: patent publication US20110301335A1 (published 2011)

T1: human TNFR1 (R&D systems, cat no. 636-R1/CF) (human, UniProt P19438 30-211, limits assumed, biotinylated with EZ-Link NHS-LC-LC-biotin where coated on streptavidin chips; amine-coupled in the Table 2 experiment)
T1 construct: bought soluble recombinant protein; also called hTNFR1; p55
T1 sequence (looked up): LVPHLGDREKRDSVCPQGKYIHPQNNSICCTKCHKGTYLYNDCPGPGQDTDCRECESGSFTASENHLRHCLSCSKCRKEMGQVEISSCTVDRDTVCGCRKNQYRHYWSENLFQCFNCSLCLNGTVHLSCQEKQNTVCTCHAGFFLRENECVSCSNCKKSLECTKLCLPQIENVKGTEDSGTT


Legend:
[1] = target: human TNFR1 (R&D systems, cat no. 636-R1/CF) (human) (UniProt P19438); experiment: BIAcore sequential injection on biotinylated human TNFR1; competitor DOM1h-574-16
[2] = target: T1, human TNFR1 (R&D systems, cat no. …); experiment: BIAcore screening of supernatants

| Molecule | percent less binding after DOM1h-574-16 [1] [%] | binding result [2] |
| --- | --- | --- |
| mAb Clone 4.12 (Invitrogen, cat. no. Zymed 33-0100) (antibody) | 20 |  |
| DOM1h-574-7 (other, anti-TNFR1 dAb (VH) from error-prone test maturation; expressed from pDOM5 (myc tag not included here)) VH: EVQLLESGGGLVQPGGSLRLSCAASGFTFVKYSMGWVRQAPGKGLEWVSQISNTGGHTYYADSVKGRFTISRDNSKNTLYLQMNSLRAEDTAVYYCAIYTGRWEPFDYWGQGTLVTVSS |  | binds |
| DOM1h-574-10 (other, anti-TNFR1 dAb (VH) from error-prone test maturation; expressed from pDOM5 (myc tag not included here)) VH: EVQLLESGGGLVQPGGSLRLSCAASGFTFGKYSMGWVRQAPGKDLEWVSQISNTGGHTYYADSVKGRFTISRDNSKNTLYLQMNSLRAEDTAVYYCAIYTGRWEPFDYWGQGTLVTVSS |  | binds |
